Assay results reported in patent US12324447B2, “Animal feed compositions and uses thereof” (priority 2015, dated 2025).
Read-outs that look alike come from different tables or passages of the source.

B1: SEQ ID NO: 300: mature GH24 lysozyme from Metarhizium sp. XZ2431 (protein, listed as Metarhizium sp.)
chain: YPVSADSLNCRAEPNTSSAIKTTYKKGEDVKISCQTEGPSINGNTIWDKTQDGCYVADYYVKTGSSGYVTGKCGGSSPPSGSGFCKTVNKAGLDLITKWEGFVSSPRGDPIGLPTVGYGHLCQKKGCAEVKYKFPLTKATALQLLNDDLPKYTGCLGKLLNSKVKLNDNQWAALTSWVFNVGCGNAQSSSLVRRLNNGENPNTVAPSELPKWKMAGGKVLEGLVKRRADEVRLFKVSSSKGAFPKCQ
modifications: mat_peptide (1)..(247)
notes: mature GH24 lysozyme from Metarhizium sp; XZ2431
B2: SEQ ID NO: 270: mature GH24 catalytic domain from Trichophaea saccata with QCVG-linker (SEQ ID NO: 257 lacking the LED) (protein)
chain: QCVGCKPPPINAATVALIKEFEGFVPKPAPDPIGLPTVGYGHLCKTKGCKEVPYSFPLTQETATKLLQSDIKTFTSCVSNYVKDSVKLNDNQYGALASWAFNVGCGNVQTSSLIKRLNAGENPNTVAAQELPKWKYAGGKVMPGLVRRRNAEVALFKKPSSVQAHPPKC
B3: SEQ ID NO: 306: mature GH24 lysozyme from Ilyonectria rufa (protein, listed as Ilyonectria rufa)
chain: YKITGDNVNCRSGPGTSYSVKRSFKKGTDVTLSCQTTGENVLGTSIWDKTSYGCYVSDYYVKTGSSGFVVKKCGTCGAPKSNAATVNLISDFEGFRANIYKDAAGYPTVGYGHLCSNSRCTDVPYSIPLSKANGKNLLATDMTKFEKCITAMVSSSVTLNKNQYGALVSWAFNMGCGATKTSTLIKRLNQGQNVNTVLSTELPKWVYAGGKKLNGLVRRRNAEIALAKKKTTEKALPNKC
modifications: mat_peptide (1)..(240)
notes: mature GH24 lysozyme from Ilyonectria rufa
B4: SEQ ID NO: 303: mature GH24 lysozyme from Geomyces auratus (protein, listed as Geomyces auratus)
chain: AFPITGSTVNCRTGPGTSHGVKTSYKKGHEVTVSCQTGGTSVNGNSIWDKTSDGCYVADYYVKTGSSGYVKPKCGSSSGGGGGSSCGAPKSNAATVNLIAEFEGFVSHVYTDATGHPTVGYGHLCSNSKCSGIGYSIPISKANAKKLLAKDMAIAEKCITAMINKSRTLNLNQYGALVSWAFNEGCGAAKSSTLIKRINNGEKPSTVIPQELPKWVYGGSSVLPGLVRRRNAEIALAKKATSSKALPAHC
modifications: mat_peptide (1)..(250)
notes: mature GH24 lysozyme from Geomyces auratus
B5: SEQ ID NO: 267: mature GH24 lysozyme from Trichoderma harzianum, comprising LED (protein, listed as Trichoderma harzianum)
chain: YPITGDVVNCRTGPGTSYAIKKSYKKNQDISISCQTAGTSVNGNSIWDKTADGCYVADYYVKTGSSGYVTKKCTASSGGGSSSSYCKTINSAGVDLIAKWEGFVASPKPDPIGLPTVGYGHLCQQKNCREVKYKFPLTKTTAKELLLDDLPKYTKCLADYLNDKPKLNANQWAALTSWVFNVGCGNAKTSTLVKRLNNGEAANTVAAEELPKWRMAGGKVLPGLEARRKDEVKLFKTASSKQAYPKCQ
modifications: mat_peptide (1)..(248)
notes: mature GH24 lysozyme from Trichoderma harzianum, comprising LED
B6: SEQ ID NO: 264: mature GH24 lysozyme from Chaetomium thermophilum, comprising LED (protein, listed as Chaetomium thermophilum)
chain: PASAYAITGDNVNCRSGPGTSYAVKKVYKKGTDVKISCQTTGTNINGNNLWDKTSDGCYVSDYYVKTGSNGYVTSKCSSSGGSTCAAPKSNQATVDLIAEFEGFRANIYTDAAGYATVGYGHKCQKAKCAEVKYKIPLSKADGKKLLADDMRSFEVCITNMLNSKAKLNYNQFGALVSWSFNVGCGAAKSSTLIKRLNNGENVNKVLSEELPKWNKAGGKVLQGLVRRRAAEVALAKKSGSSQALPVKC
modifications: mat_peptide (1)..(249)
notes: mature GH24 lysozyme from Chaetomium thermophilum, comprising LED
B7: SEQ ID NO: 269: amino acid sequence deduced from SEQ ID NO: 268: GH24 catalytic domain with QCVG-linker and signal peptide; precursor of SEQ ID NO: 270 (protein)
chain: MAKVSTLTIALLTMASQARAQCVGCKPPPINAATVALIKEFEGFVPKPAPDPIGLPTVGYGHLCKTKGCKEVPYSFPLTQETATKLLQSDIKTFTSCVSNYVKDSVKLNDNQYGALASWAFNVGCGNVQTSSLIKRLNAGENPNTVAAQELPKWKYAGGKVMPGLVRRRNAEVALFKKPSSVQAHPPKC
B8: SEQ ID NO: 291: mature GH24 lysozyme from Trichophaea minuta (protein, listed as Trichophaea minuta)
chain: YPAKVDLRCRSSPSTSASVVRTYSKGSEIQISCQTTGTSVEGSNVWDKTQHGCYVADYYVKTGHSGIFTTKCGSSSGGGSCKPPPINAATVALIKEFEGFVAKPAPDPIGLPTVGYGHLCKTKGCKEVPYSFPLTQTTATKLLQSDIKTFTSCVSNYVKDSVKLNDNQFGALSSWAFNVGCGNIQTSSLIKRLNAGENPNTVAAQELPKWKYAGGKVLPGLVRRRKAEVALFKKPSSVQAHPPKC
modifications: mat_peptide (1)..(245)
notes: mature GH24 lysozyme from Trichophaea minuta
B9: SEQ ID NO: 297: mature GH24 lysozyme from Mortierella sp. ZY002 (protein, listed as Mortierella sp.)
chain: YPITGADALHCRSGPGTSYPIQKTLRPPQDIKIQCQEPGTVVNGVSLWDKTQFGCYVSDYYVKTGTGNYVAPRCNSGGSSSACTGLNDAGINLIKEFEGFVPRPAPDPIGLPTVGYGHLCQTKGCGEVKYSFPLTTATATALLKDDLPKYTSCLAKALNGKPKLNKNQWAALASWTFNVGCGNMKSSSLITRLNAGQNPNTVATEELPKWKLAGGKVLPGLVRRRAAEVKLFKTANSSQGYPKCA
modifications: mat_peptide (1)..(245)
notes: mature GH24 lysozyme from Mortierella sp; ZY002
B10: SEQ ID NO: 294: mature GH24 lysozyme from Chaetomium sp. ZY287 (protein, listed as Chaetomium sp.)
chain: YKISGSSVNCRSGPGTNYPVKKTYANGDEVTISCQTTGTNVEGNNIWDKTQHGCYVADKYVKTGKDGFVTKKCGSSGGGGGGKTCKAPKSNAATVDLIASFEGFRANIYTDATGHPTVGYGHMCTKSRCAEVKYKIPLSKADGKKLLADDMAKFEKCIKEMLNSKAKLNLNQYGALVSWSFNVGCGAAKGSQLVSRLNKGENPNTVLSNELPKWVHGNGKVLPGLVRRRNAEIALAKKSGSGAALPVKC
modifications: mat_peptide (1)..(249)
notes: mature GH24 lysozyme from Chaetomium sp; ZY287

Tests used:
[1] = tested on: Exiguobacterium undea (DSM14481); test: Lysozyme activity turbidity assay (optical density drop at 540 nm); assay type: biochemical, Exiguobacterium undae; settings: for Lysozyme activity against Exiguobacterium undea (in words): OD drop assay
[2] = tested on: Micrococcus lysodeikticus ATTC No. 4698; test: as above; settings: for Lysozyme activity against Micrococcus lysodeikticus (in words): OD drop assay
[3] = tested on: Clostridium perfringens DSM756; assay type: cell-based; settings: for Diameter of clearing zone (mm): lysozymes 100 μg/ml, Bacitracin zinc salt 50 μg/ml; for Diameter of clearing zone (mm), bracketed with *: Incomplete inhibition of growth visible after MTT colouring: lysozyme 100 μg/ml; for Antimicrobial activity against Clostridium perfringens (in words): RDA
[4] = tested conditions (1/10 MHB pH 7 and 1/2 MHB pH 6)

Row | Molecule | Lysozyme activity against Exiguobacterium undea (in words) [1] | Lysozyme Activity against Exiguobacterium undae as measured by Optical Density Drop ([1]; assay pH 6 (Table 14)) | Lysozyme activity against Micrococcus lysodeikticus (in words) [2] | Lysozyme Activity against Micrococcus lysodeikticus as measured by Optical Density Drop ([2]; assay pH 6 (Table 14)) | Diameter of clearing zone (mm) ([3]; Experiment 1, 1/2 MHB pH 6) | Antimicrobial activity against Clostridium perfringens (in words) ([3]; 50% MHB, pH 6) | further results
1 | B1 | good activity | +++ | good activity | +++ |  |  | 
2 | B2 |  |  | no lysozyme activity |  | 0 | no activity | Diameter of clearing zone (mm), bracketed with *: Incomplete inhibition of growth visible after MTT colouring ([3]; Experiment 1, 1/10 MHB pH 7): (8)* mm; Diameter of clearing zone (mm), bracketed with *: Incomplete inhibition of growth visible after MTT colouring ([3]; Experiment 2, 1/10 MHB pH 7): (5)* mm; Lysozyme Activity against Micrococcus lysodeikticus as measured by Optical Density Drop ([2]; assay pH 6): −
3 | B3 | good activity | ++++ | good activity | ++ |  |  | 
4 | B4 | good activity | ++++ | good activity | +++ |  |  | 
5 | B5 | good activity | ++++ | good activity | +++ | 12 | significant activity | Diameter of clearing zone (mm) ([3]; Experiment 1, 1/10 MHB pH 7): 10 mm; Diameter of clearing zone (mm) ([3]; Experiment 2, 1/10 MHB pH 7): 8 mm; Antimicrobial activity against Clostridium perfringens (in words) [3, 4]: showed antimicrobial activity
6 | B6 | good activity |  | good activity |  | 10 | significant activity | Lysozyme Activity against Exiguobacterium undae as measured by Optical Density Drop ([1]; assay pH 6): ++++; Diameter of clearing zone (mm) ([3]; Experiment 1, 1/10 MHB pH 7): 9 mm; Diameter of clearing zone (mm) ([3]; Experiment 2, 1/10 MHB pH 7): 7 mm; Antimicrobial activity against Clostridium perfringens (in words) [3, 4]: showed antimicrobial activity; Lysozyme Activity against Micrococcus lysodeikticus as measured by Optical Density Drop ([2]; assay pH 5): ++++
7 | B7 |  |  |  |  |  | no inhibition of growth | Antimicrobial activity against Clostridium perfringens (in words) ([3]; 1/10 MHB, pH 7): incomplete inhibition of growth
8 | B8 | good activity | ++++ | good activity | ++++ |  |  | 
9 | B9 | good activity | +++ | good activity | ++++ |  |  | 
10 | B10 | good activity |  | good activity |  |  |  | Lysozyme Activity against Exiguobacterium undae as measured by Optical Density Drop ([1]; assay pH 7 (Table 14)): +++; Lysozyme Activity against Micrococcus lysodeikticus as measured by Optical Density Drop ([2]; assay pH 7 (Table 14)): +++
